Consider one molecule from publication PMC10381268, “VEGF Detection via Impedance Spectroscopy on Surface Functionalized Interdigitated Biosensor”.

The target of this series is VEGF165 (vascular endothelial growth factor) (UniProt P15692-4 27-191). Briefly: impedance spectroscopy on aptamer-grafted interdigitated sensor; 5 and 50 pM VEGF in PBS; 10 kHz impedance 50.32 (water), 28.90 (5 pM), 12.81 kOhm (50 pM); proteins diluted in PBS (5 and 50 pM), about 25 °C, impedance 2.5-100 kHz; aptamer grafted at 50 nM, pH 8, 24 h; water pH 7 as control. Particulars: protein: commercial; chain copies: 2.
Chain of VEGF165 (vascular endothelial growth factor) (P15692 other isoform, or with tags, fused parts or gaps): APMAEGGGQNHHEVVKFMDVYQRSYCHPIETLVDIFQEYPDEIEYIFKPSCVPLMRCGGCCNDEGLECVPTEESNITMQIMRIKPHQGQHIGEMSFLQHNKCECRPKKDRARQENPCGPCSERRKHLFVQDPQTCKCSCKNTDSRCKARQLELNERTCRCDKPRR

B1: VEGF165 DNA aptamer (ssDNA)
DNA: ATACCAGTCTATTCAATTGGGCCCGTCCGTATGGTGGGTGTGCTGGCCAGATAGTATGTGCAATCA
modifications: grafted on NHS-functionalized mercapto monolayer; attachment group on the DNA not stated
Take B1: the binding result is recorded as “binds”.
